Positions count from the first letter of the chain named.

Test [1] has as its target T1, recombinant human CD25 his tagged (human, UniProt P01589 22-240).
T1 construct: also called rhCD25; rhCD25-his tag; not shown: His tag
T1 sequence: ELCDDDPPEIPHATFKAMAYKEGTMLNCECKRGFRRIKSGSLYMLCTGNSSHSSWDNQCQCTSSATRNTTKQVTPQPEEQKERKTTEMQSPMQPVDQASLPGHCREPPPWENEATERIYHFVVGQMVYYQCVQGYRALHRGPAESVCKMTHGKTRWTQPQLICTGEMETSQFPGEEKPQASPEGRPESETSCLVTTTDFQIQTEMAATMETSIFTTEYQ
The test is described as follows: SPR, Biacore 2000: IgG1 captured on the chip, rhCD25-his tag as analyte.

Test [2] concerns the target T1, recombinant human CD25 his tagged. The description is as above. The source holds these as a separate data set.
Test [3] shares this target. The test is described as above. This is another data set of the same source.
For test [4] the target is unchanged. The test is described as follows: BLI, ForteBio Octet Red96, IgG on AHC sensors, rhCD25-His in solution, global 1:1 fit. On the technique in general: In BLI a coated tip is dipped into the sample, and binding shifts an interference pattern.
Experimental: Sensors were equilibrated off-line in assay buffer for 10 min and then monitored on-line for 60 seconds for baseline establishment. […] Then, 1:3 serial dilutions (from 1 uM to 4 nM) of recombinant human CD25 HIS tagged was associated to the loaded IgG for 10 min. Afterwards they were transferred to assay buffer for 6.6 min for off-rate measurement. Kinetics data were fit using a global 1:1 binding model in the ForteBio Data Analysis Software 9.0 with reference subtraction.
In test [5] the target is T2, human CD25 expressed on cells (human, UniProt P01589 22-272).
T2 construct: Endogenous CD25 on human cell lines and primary cells
T2 sequence: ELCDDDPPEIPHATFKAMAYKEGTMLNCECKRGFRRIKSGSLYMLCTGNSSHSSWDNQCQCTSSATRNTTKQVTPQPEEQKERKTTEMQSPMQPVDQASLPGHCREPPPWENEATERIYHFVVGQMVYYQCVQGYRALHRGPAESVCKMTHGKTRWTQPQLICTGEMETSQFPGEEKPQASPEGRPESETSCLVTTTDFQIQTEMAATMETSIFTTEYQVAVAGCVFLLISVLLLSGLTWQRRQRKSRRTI
Put plainly: flow cytometry on CD3/CD28 bead activated human Pan T cells, gated on CD4+ T cells.
Experimental: (§1) Binding to CD25 expressing activated human and Cynomolgus monkey PMBC was examined by staining test articles (anti-CD25 primary antibodies) with 20 μg/ml antibodies followed by semi-log dilution series (7-point) for 30 minutes on ice. This was followed by staining with a secondary antibody (rabbit anti-human Fcg F(ab′)2-(Jackson ImmunoResearch)) concentration of 5 μg/ml for 30 minutes on ice. All samples were stained in triplicates. To minimize cross-linking induced cell death mediated by binding of the secondary antibody, cell lines were examined in staining cohorts of 4 test articles at a time. Live lymphocytes were gated using FSC vs SSC parameters by flow cytometry during sample acquisition. Mean fluorescence intensity (MFI) of gated CD4⁺ and CD8⁺ T cell subsets were plotted on an XY chart, graphing MFI against the log of the concentration, and the data fit to a non-linear regression curve from which the EC50 was calculated.

The target in test [6] is T2, human CD25 expressed on cells. Put plainly: flow cytometry on CD3/CD28 bead activated human Pan T cells, gated on CD8+ T cells. A general note: A flow cytometer gives signals particle by particle.
Experimental: as §1
The target of test [7] is T1, recombinant human CD25 his tagged. Put plainly: SPR, Biacore 2000, IgG captured by anti-human antibody on CM5, rhCD25-His as analyte, two state reaction fit. In general terms: In SPR one partner is held on a chip, and binding of the other changes the refractive index at the surface.
Experimental: Anti-human antibody was initially immobilised across all flow cells in analysis buffer (pH 7.4, 10 mM HEPES, 150 mM NaCl, 3 mM EDTA, 0.05% Tween 20) to an RU of between 12,000-14,000 over 10 minutes. […] Dissociation was performed in analysis buffer over 10 minutes. Regeneration steps between sample concentrations were performed in 10 mM Glycin pH1.7 for 10 minutes. A flow rate of 25 μl/min was maintained throughout the process. Kinetics data were fit using a global two state reaction conformational change analysis software provided by Biacore with reference subtraction.
In test [8] the target is T3, human CD25 antigen, R&D Systems cat no. 223-2A/CF (~10% dimer) (human, UniProt P01589 22-213, limits assumed).
T3 construct: Bought protein; also called R&D Systems (~10% dimer)
T3 sequence: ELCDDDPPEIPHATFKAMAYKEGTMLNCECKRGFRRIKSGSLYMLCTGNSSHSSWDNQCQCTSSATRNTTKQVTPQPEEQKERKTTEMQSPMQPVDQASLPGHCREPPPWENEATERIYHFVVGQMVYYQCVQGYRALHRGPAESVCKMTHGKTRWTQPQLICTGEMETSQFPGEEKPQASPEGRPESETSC
The test is described as follows: SPR, Biacore T200, antibody captured by anti-human Fab on CM5, CD25 as analyte, Two State Reaction fit; column printed as 'Binding strength'.
Text: (§2) Binding of CD25 antibodies to human CD25 antigen was investigated by surface plasmon resonance using a BIACORE T200 instrument (GE Healthcare).
(§3) For calculation of KD and kinetic parameters Biacore provided fitting models were used to obtain optimal curve fitting results. The 1:1 Langmuir fit was used for P1AA5872 and the Two State Kinetic fitting for CD25 from Sino Biologicals and R&D Systems.

The target of test [9] is T4, inhouse produced monomeric human CD25 antigen (P1AA5872) (human, UniProt P01589 22-240, limits assumed).
T4 construct: also called Inhouse (0% dimer)
T4 sequence: T1 sequence
The test is described as follows: SPR, Biacore T200, antibody captured by anti-human Fab on CM5, monomeric CD25 as analyte, 1:1 Langmuir fit; column printed as 'Binding strength'.
Text: as §2, §3

The target in test [10] is T5, human CD25 antigen, Sino Biologicals cat no. 10165-H08H (~20% dimer) (human, UniProt P01589 22-213).
T5 construct: Bought protein; also called Sino biological (~20% dimer)
T5 sequence: T3 sequence
The test is described as follows: SPR, Biacore T200, antibody captured by anti-human Fab on CM5, CD25 as analyte, Two State Reaction fit; column printed as 'Binding strength'; Sino Biological CD25 (~20% dimer), Two State Reaction fit.
Text: as §2, §3

For test [11], the target named is T1, recombinant human CD25 his tagged. The test is described as follows: SPR, Biacore 2000: IgG1 captured on the chip, rhCD25-his tag as analyte. The source holds these as a separate data set.
Test [12] shares this target. Described as above. This is another data set of the same source.

B1: aCD25-a-646-m2 (antibody, IgG1, V domains shown)
VH: QVQLVESGGGLVQPGGSLRLSCAASGFTFPSYGMHWVRQAPGKGLEWVAVIWYDAINKYYADSVKGRFTISRDNSKNTLYLQMNSLRAEDTAVYYCARDLGYGDYAAHDYWGQGTLVTVSS
VL: DIQMTQSPSTLSASVGDRVTITCRASQSISSWLAWYQQKPGKAPKLLIYKASSLESGVPSRFSGSGSGTEFTLTISSLQPDDFATYYCQQHNTHPYTFGGGTKVEIK
Usually Kd stands for a measure of binding affinity in units of concentration. As for B1, the dissociation constant Kd in test [1] is 0.36 nM.

B2: aCD25-a-646-m1 (antibody, IgG1, V domains shown)
VH: B1 VH with Q1E, Q13K, P30A, I56S, N57T
VL: B1 VL
Take B2: the Kd in [2] is 1.43 nM.

B3: aCD25-a-646-m4 (antibody, IgG1, V domains shown)
VH: B1 VH with L11V, G16R, I56S, N57T
VL: B1 VL
For B3, the Kd in test [3] turned out to be 0.56 nM.

B4: aCD25-a-646 (antibody, V domains shown)
VH: B1 VH with L11V, G16R, P30S, A55G, I56S, Y59G
VL: B1 VL
notes: also called parental clone
The EC50 (read off the curve) is the concentration needed to bring the measured effect to its halfway point. Take B4: the Kd in test [4] was 3.65 nM; in test [7], 3.8 nM; in test [8], 15 nM; in test [9] it was 77 nM; in test [10], 8.5 nM. Also, the “EC50 (read off the curve)” value in test [5] and in test [6] was about 0.2 µg/mL throughout.

B5: aCD25-a-646-m5 (antibody, IgG1, V domains shown)
VH: B1 VH with Q1E, V5L, I56L
VL: B1 VL
For the molecule B5, the Kd in test [11] is 0.31 nM.

B6: aCD25-a-646-m3 (antibody, IgG1, V domains shown)
VH: B1 VH with L11V, G16R, I56V
VL: B1 VL
On to B6, for which, in test [12], the Kd amounted to 0.42 nM.

(Values after patent US20190300613A1 (TUSK THERAPEUTICS, published 2019).)
